Laboratory results from paper PMC5986008, “Intracellular free flavin and its associated enzymes participate in oxygen and iron metabolism in Amphibacillus xylanus lacking a respiratory chain” (FEBS Open Bio, 2018).
Values belong to the molecule of their own block, whether it stands above or below them.

Key:
[1] = molecular target: T1, NAD(P)H oxidoreductase (Npo) (Amphibacillus xylanus, UniProt K0J097); experiment: NADPH oxidation kinetics (details not told); type: biochemical; conditions: only an upper bound printed; conditions of this determination not told
T1 construct: recombinant from E. coli DE3, pET101 TOPO, reverse primer keeps native stop (primers encode N-terminus MAKDF, C-terminus CENFK); 23 kDa; 1 mol FMN per subunit
T1 sequence (K0J097 1-199): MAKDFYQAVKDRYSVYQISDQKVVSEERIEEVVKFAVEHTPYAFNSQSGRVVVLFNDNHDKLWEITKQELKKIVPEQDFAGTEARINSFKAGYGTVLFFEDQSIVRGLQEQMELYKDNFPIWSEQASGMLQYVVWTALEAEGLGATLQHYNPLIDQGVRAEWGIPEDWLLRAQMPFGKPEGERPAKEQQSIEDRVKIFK

[2] = molecular target: T1, NAD(P)H oxidoreductase (Npo); experiment: spectral analysis of FMN released from the protein by […] SDS; type: binding; conditions: bound flavin cofactor, 1 mol FMN per subunit
purified protein = substrate: Cc1cc2nc3c(=O)[nH]c(=O)nc-3n(C[C@H](O)[C@H](O)[C@H](O)COP(=O)(O)OP(=O)(O)OC[C@H]3O[C@@H](n4cnc5c(N)ncnc54)[C@H](O)[C@@H]3O)c2cc1C; experiment: purified protein; type: biochemical, Amphibacillus xylanus; conditions: 50 mM sodium phosphate pH 7.0, 0.5 mM EDTA, 25 °C, FAD 15-150 μM as free substrate

Km [1]: < 33 µM
Molecule: NC(=O)C1=CN([C@@H]2O[C@H](COP(=O)(O)OP(=O)(O)OC[C@H]3O[C@@H](n4cnc5c(N)ncnc54)[C@H](OP(=O)(O)O)[C@@H]3O)[C@@H](O)[C@H]2O)C=CC1 [NADPH]

Molecule: Cc1cc2nc3c(=O)[nH]c(=O)nc-3n(C[C@H](O)[C@H](O)[C@H](O)COP(=O)(O)O)c2cc1C [FMN]
spectral analysis of FMN released from the protein by 0.1% SDS [2]: spectral analysis of free FMN, which was released from Npo protein

B1: NADH oxidase (Nox) (Amphibacillus xylanus NBRC 15112) (protein)
chain: MLDKDIKQQLEQYLALLENDIVIKVSVGDDKVSKDTLELVNEIADMSSMISVEETTLERTPSFSINRKGEPDSGVVFAGIPLGHEFTSLVLALLQVSGRAPKVEASVIDAIKKVEGKHDFVTYVSLTCQNCPDVVQALNLMSVVNPNITHTMVEGSAFKDEVDRLNILAVPSVYLNGEFMASGRMTIEDILGHLGSGIDASELNEKDPFDVLVIGGGPAGASSAIYAARKGIRVGIIADRFGGQVMDTLGIENFIGTKYTEGPKLISEIEQHVNEYNIDVMKGLRAHNIEKKDLFEVQLDNGAVLKSKTIILATGARWRDIGVPGEKEYKNKGVAYCTHCDAPLFEGKHVAVVGGGNSGIESALDLAGIVKHVTVFEFMSELKADAVLQERLRSLPNVDVILNAQTTEITGDETVKGISYIDRTTNEEKHVELQGAFIQIGLAPNTEWLGDTVERNQIGEIVIDKKGQTSVPGIFAAGDCTDTPYKQIIVSMGAGATAALGAFDYLLRN
Km (purified protein; 150 μM NADH): 37 ± 3 µM
kcat (purified protein; 150 μM NADH): 91 ± 8 s⁻¹
kcat/Km (purified protein; 150 μM NADH): 2.42e+06 ± 74000 M⁻¹ s⁻¹

B2: NAD(P)H oxidoreductase (Npo) (Amphibacillus xylanus NBRC 15112) (protein)
chain: T1 sequence (K0J097 1-199)
notes: recombinant from E. coli DE3, pET101 TOPO, reverse primer keeps native stop (primers encode N-terminus MAKDF, C-terminus CENFK); 23 kDa; 1 mol FMN per subunit
Km (purified protein; 150 μM NADPH): 71 ± 10 µM
kcat (purified protein; 150 μM NADPH): 1 ± 0.1 s⁻¹
kcat/Km (purified protein; 150 μM NADPH): 14000 ± 1000 M⁻¹ s⁻¹
